From PMC2753473
Read-outs that look alike come from different tables or passages of the source.

Tests used:
[1] = molecular target: photoactivated rhodopsin (Rho*, Meta II) (bovine) (UniProt P02699); test: SEC
[2] = molecular target: photoactivated rhodopsin (Rho*, Meta II) (bovine) (UniProt P02699); test: SEC; remark: listed apart in the source

photoactivated rhodopsin (Rho*, Meta II) (bovine), sequence (P02699 whole entry): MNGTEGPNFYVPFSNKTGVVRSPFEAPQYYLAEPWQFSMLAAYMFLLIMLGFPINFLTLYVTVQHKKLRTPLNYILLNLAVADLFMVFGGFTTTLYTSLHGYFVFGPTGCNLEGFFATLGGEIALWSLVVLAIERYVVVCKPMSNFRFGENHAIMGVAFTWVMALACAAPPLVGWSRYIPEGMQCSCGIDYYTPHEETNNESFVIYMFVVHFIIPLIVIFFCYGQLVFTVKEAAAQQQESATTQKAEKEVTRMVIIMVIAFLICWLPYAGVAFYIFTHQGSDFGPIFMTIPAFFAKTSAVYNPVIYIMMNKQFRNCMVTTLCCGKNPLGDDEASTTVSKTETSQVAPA

“transducin (Gt), rod cell-specific heterotrimeric G protein (from UniProt P04695 1-350; P62871 1-340; P02698 1-74) (complex)” was tested, and the stoichiometry N (Rho*:Gt molar ratio) [1] was 1 and the stoichiometry N (Rho*:Gt molar ratio) [2] was 1.
